Measurements as given in the DeepSol protein solubility set.

Test: soluble on expression in E. coli; label from the status in PepcDB or PDB records

Row | Sequence | soluble on expression in E. coli
1 | MGSDKIHHHHHHMAAGSTLWTRIPAMQQQNHPPYTLAIAQGESISLDPSHFTPEHWQALAAVTGTSKGRYTTWFVRHPEANQDWVLRHYWRGGLMEKFSKDRYLYTGMANTRAIAELALLEKLHAEGFPVPRPVGARVRRYALWYSADILIERMPGCRDLLAWLEQGPLDEAEWKALGVCIARFHHRGVYHADLNAKNILKGPQGFALIDFDRGEIRNPANSWQQANLSRLRRSFDKEKGKLPSLAFDESCWQWLLEGYAAA | not soluble
2 | MSRRLPPLNSLRVFEAAARHLSFTRAAEELFVTQAAVSHQIKALEEFLGLKLFRRRNRSLLLTEEGQSYFLDIKEIFSSLSEATDKVLERSAKGALTISLPPSFAIQWLVPRLSDFNNQEPDIDVRIKAVDMDEGSLTEDVDVAIYYGRGNWPGLRVELLYQEQLLPLCSPQVLLNEKPLATIDDLRFHTLLHDTSRKDWKQFVKHYELAGMNVNQGPIFSHSTMVLQAAAHGQGIALGNNVLAQPELDAGRLVAPFEEVLVSKNAFYLVCNEKQADTGRIATFREWILSKARSEQEIVDDE | soluble
3 | MIFAYNKEHVGDVLLVIVADDQGAENQVKRVGDVARVSLVEAPETVVAWNIFNASALLGDINGTGQVTLTDEQIEKVNTAIKDAGFSETLEKDDTPKIVVGFVKSCKKHPDSDHLSITQTEVDNGEILQIVCGAPNIKAGQKVVVAKPGAMMPDGLMIWPGVLRGEESFGMICSAKELRLPNAPAKKGILELPFDAEVGSAFAVGE | not soluble
4 | MAHTSRHNEFSIGASASLWECMLNQWLGRLYQNQDAHTGLQFEARIAQRQSLVKQLHERQLDLLITTEAPKMDEFSSQLLGYFTLALYTSAPSKLKGDLNYLRLEWGPDFQQHEAGLIGADEVPILTTSSAELAQQQIAMLNGCTWLPVSWARKKGGLHTVVDSTTLSRPLYAIWLQNSDKNALIRDLLKINVLDEVY | not soluble
5 | GMDVFSEYLAGIADPFHRERTEEVLTWIKNKYPNLHTEIKWNQPMFTDHGTFIIGFSVSKKHLAVAPEKVTIAHVEDDIVKAGYDYTEQLIRIPWNGPVDYTLLEKMIEFNILDKADCSTFWRK | soluble
6 | MGSDKIHHHHHHVTSEIKRGVSLYSYQNETFQGKMTLEDCIRTSAELGAKGIEIIGEQTFWGWPECGVAQADVDTWHRLIKQYDCTPVSHDFMLDYKRYKGREMPFDEQVASVKNDVDFGARLGMKYIRALVSIAPEVLVAAAPYAEEKGIKILIEVHAPLHFDHPWIIRHAEAFEKSGSDALGFLPDMGMFLFAFPPVWKEKFLRIGVPKNIADYVEKAYEDRVLSEYVILNVQQMGGTGPAIAMAETLRHNAAFEPRRMLDYMHRIHNVHGKFYQMNEDYVEPSIPYDEIVKVLKQGGFNGYICSEYEGNRWIEDAEEPDSVEQVRRQQVMLARLLGETEVPTIQTSPTASAMAEAAA | not soluble
7 | TRIPGVRLMRAEQAYPRSPVFYEPRICILAQGQKIGFLGGETYRYDAERYLVMSVPLPFECETHASAAEPLLGVSVDVDIGTLKELLLQMEEAPGSDDDNELAPSAPMASVPLDAGMADAVMRLLGCLQSPLDSHILGPQLVREIIFRALRSEQGNAL | not soluble
8 | MSEVIQDRRSAVDTARAGHMLERARWAAAAYGEYDAATVEGIVAAVAEAAHAHAERFAADAVAETGMGVVADKVRKNRACSRGIVEYYRGHDYISPRVDPDRKIVELPRPAGVVLALTPTTNPVATVYFKTILALMTRNAVVVAPHPRAARCSAEAARVLAEAAVAAGAPDGVVQVIDEPSIPLVQALMADERTDVIVATGGTAVVRAAYSSGNPALGVGPGNVPVLVDASADVAAAAQRIVDSKAFDNSVLCTNESVLIAEDAVADKLRAALTRAGAHILDEDGARRLRAYMFADGHLNTDVVGRDAAWIAGQAGLRVTPKTRVLIAPFDHVIAEEMLAHEKLSPVLGMTTVADAARGIRAARAVVRIGGAGHSAAIHSENPAVITDFAAQVPVLRVSVNVGNSTGSAGLDTNLAPSMTIGTGFVGRSSIGENLQPHNLVNWTRIAYNSDPGVVMGNFTGIDPWRAPAGPVPAYPRASNDRDGAVIQAAPQRSYQSPSRTTDVNLDALRAELRALVVEELAQLIKR | not soluble
9 | YVLAVTACPTGIAHTYMARDALKKQAEKMNIKIKVETNGSSGIKNHLTEQDIERATGIIVAADVHVETDRFDGKNVVEVPVADGIKRPEELINTALDTNRKPF | not soluble
10 | MSNTKTASTGFAELLKDRREQVKMDHAALASLLGETPETVAAWENGEGGELTLTQLGRIAHVLGTSIGALTPPAGNDLDDGVIIQMPDERPILKGVRDNVDYYVYNCLVRTKRAPSLVPLVVDVLTDNPDDAKFNSGHAGNEFLFVLEGEIHMKWGDKENPKEALLPTGASMFVEEHVPHAFTAAKGTGSAKLIAVNF | soluble
11 | MAHHHHHHMNEVVPHVAELMTDQYANFLIQKLFDMMPQDVRYKVARVAAPKIISIALTPHGTFSVQKMVETIASREEMDILREALSKDVVRLVKDAHGNHVIQKVLQRFSHADKEFIYAAVGSDCISIAKNKQGCCVLQRCLEYASCSQRATLVNQILRCCLQIAEDPFGNYVLQYVLESNDSKTTDTIAIAFLPHLVQLCMNKFSSNVIEKVLRGASQPVQEMYVETMCSPDVVSRLIQDDFGNYVLQTALTICSSAQAESLVSAVRPLMPIIRNAPYAKKLEGKIDGIVHKTAGNDRNSFAEYEKSRQGEMNEQNCDILLPHHARESSVAPHQQLSS | not soluble
12 | MGSDKIHHHHHHMQWFENPLFSERVEFLESSQYWPAERHAVYQLRSLRRLVHHVAAHVPFYRDFMAASGIRPEDILSIEDIKRFPIIDKKVIQAQPEAFLADGSDRATLLHRTTGGSTGTPLTVWFDGDLLARDKANTEHYMRAIGLDIFTWKSIRLYGDKIDPEITDTGRYWKLVDGRRLVMSCYHITHETAPAYVAELNRFRPRYIHTRPSSILPLAKYILQDGLALDPIRTIVSDGEYLTDGQRAVIERAFQGRLYNIYGHTEACVVGHPCHHSDGLHLMPQVGVTELLDEQGRDVTEPGGRGELVVTGFNNPVMPLIRYRTGDVAYLGEGGCRCGRHYQMLKGIEGRLQDYVIDAAGNPTPLAPAVFNYNDMDWKGIKEFKVIQDTPGELTILIVLEAELAADPAGSKAVLEQRIGAILAGFRISITLVDDIPKTKIGKHRYLDQRLDVKELVSFR | not soluble
13 | MSIQKLLSKARKAIQDFDMIQENDKIAVGLSGGKDSLTLLHILKSYQRFSPQNFELIAITLNTGGVDNSPLDKLCKEINVPFYEFQTDIKEIVFDIRQEKNPCALCANLRRGALNDNAKKLGCNKVALGHHKDDAIETFLMSMFYEGRVNCFSPKTYLDRQDLTVIRPMVYIEEYMTKKISKDSNYPIITNPCPANGHTRREYIKNLIANLNKEMPDFKRNVFGALNNSEKLFIWDKEKIKNFK | not soluble
14 | MGSDKIHHHHHHMTLWQPDPALIRRPAYQSLADQFARAIHDGRLANGARLPTHRRLADDLNLSVQTVSRAYEELIRRGLISGEIGRGSFVQTQRREPEPPYLPERLGEVIDLSILKPVCEPMHLERLKQALGWLAENLPSSSALSFRPNMVFPRHRAVAVEWLKLCGLDISAQNISLTNGATAGMTVALMSVAPPGSTVATEAIGHHTLVPLARYLGFNLQGLPIDDNGLIPEALDEACRLSDIRAVFVQPSVINPTATLMDAQRREQIAAVARKHDIAIIENDVLGPLVEDRPPPVAAFAPERTLYVTSFTKITVPGLRIGYLAAPDRYVAAVANRHLVSNWMATPLVAEIATKWVTDGTAMELVLWQRAALRRRQDIAAEVLARIDYRARRDGLHIWLQLPDDRAEEGFVAQARLQGVAIAPGTSFRISDAPWHPAVRISLGSTTEGELRAGLGVVTKLLLGDPEHLLLAI | not soluble
15 | SNAMSFIAIIPARYASTRLPGKPLADIAGKPMVVHVMERALASGADRVIVATDHPDVVKAVEAAGGEVCLTRADHQSGTERLAEVIEHYGFADDDIIVNVQGDEPLVPPVIIRQVADNLAACSAGMATLAVPIASSEEAFNPNAVKVVMDAQGYALYFSRATIPWERERFAQSKETIGDCFLRHIGIYAYRAGFIRRYVNWAPSQLEQIELLEQLRVLWYGEKIHVAVAKAVPAVGVDTQSDLDRVRAIMLNQ | soluble
16 | YLDLWQTQDAKIRAKLAAVFQAEQNLNEAAIAYCLARALPEETAIFFANSMVVRYAEFFWQLNDQQILPYFNRGANGIDGTLSTALGIAENHSPAVLLTGDLALLHDINGFLTLSKFTGSLTIIVINNQGGGIFEMLPIAEEKDIFEDYFATPQTVEFSKVCDLYGIEYQAIQTKADLMQTCAILPPRGVRLLEVKTNRNQAMTWLKDLFQ | not soluble
17 | MSLITVNTLQKMKAAGEKIAMLTAYESSFAALMDDAGVEMLLVGDSLGMAVQGRKSTLPVSLRDMCYHTECVARGAKNAMIVSDLPFGAYQQSKEQAFAAAAELMAAGAHMVKLEGGVWMAETTEFLQMRGIPVCAHIGLTPQSVFAFGGYKVQGRGGKAQALLNDAKAHDDAGAAVVLMECVLAELAKKVTETVSCPTIGIGAGADCDGQVLVMHDMLGIFPGKTAKFVKNFMQGHDSVQAAVRAYVAEVKAKTFPAAEHIFADEGGSHHHHHH | soluble
18 | MFALVLFVCYLDGGCEDIVVDVYNTEQQCLYSMSDQRIRQGGCFPIEDFIDGFWRPAQEYGDFLEHHHHHH | soluble
19 | MADVPDQVDINVNVVEKPTGAIMFGAGYSDREGIILNGSIAQNNILGTGNFLSLQVNTGSVNKVISASFNNPYYTINGVSLGLEAFKRDINTRSLSSVGMFNTDTTGANIRFGIPVAENDIVSLGLGYEHTKIDLRDDSPQRFKDFVDQFGKTSNNLPITLSWARDRRNSAIWTTSGMTQRLFGEFGLPFGDLNYYKVSYEQRWFFPVTKMFTLMLNGEVGVGDGYSDKPLPFFKNFFAGGFNSVRGYNINTLGPRDSDDRVLGGSKRIVGNIEVLFPVPFMKEDKSVRLSAFADGGTIVNSFSGLGFDDFRYSAGLAATWISPMGPLKFSVAQPLNNQSGDKLQRFQFQFGQTFLEHHHHHH | soluble
20 | MGSDKIHHHHHHMHVKRAATAGFCMGVGLALKKLDRELDNNAKDIATLGPIIHNPQVLRRYEQKGVRCYTDPAEARSGQRVVIRAHGIPEETESALAAAGVDLVDATCPKVKRAQLGIARQREKGRTLLLFGEHDHPEVQGLLSYAGEGAVVFGSLEELQNGPLEDDRHYFLAAQTTQDKHAFTSVIEWVRRRFGDHVPVLDTICDATRERQDEAIAIARSVDVMVVVGGFASGNTRRLAEVAQAQGVPTYHVETPDQLPLDAIRGYGAAGLTAGASTPKSIIDETQKLLESL | not soluble
21 | MKTLHLTFIAKSSKRSHFWLELVWLNNQKKILFCGAGHCKMSPHIIATVTIDDEHHHHHHRSNENYSPSSQDMDSPKPKGRILYCRKCEGHGEKVILKNHSPQCPYILCNCKSCEKLNYKRLKSFNKRNKEKIELAAALNAKRHAPESGSSVDDEEGFSRRSSFCSKTSTPDMDSETRTSSTTPITRSNSTMPTANGLEGRSGSLGHMTVMSYDIWKAKCASERKRLEEERLTKPELFTRSPSPGPMRKRAHTFVAPPTIHTPDIPVVAAKKMSLDEKVKGKFITLPTIPAMRIFVNEEDEDVKPVTQMQLAQPIALTPSPQMSLASTLAQIPMSTPVCMPSMITPTSFLDIPSTSSPMLPFQISTTTSPMLQRQTPILTPQMSPFKPVGVATPQPPALSNLSAGQELSSFILHSVVLQAQQAQQKTAQQLIPTSMPSELESTLSLLRLQQSSLGDLIKLSGIQLPTLPTTQPMLTPQMPTLPMMQKALPTVLPGSFQPFLQPTLFTNPV | not soluble
22 | MSLQTSDQYSIQEVVDAGHGFFGETTGGLAKVVERAFQQYGLPNGYILGQEGSGAFVAGLTYGEGTLYTKNAGQHPVFWQGPSLGLDYGGQGTRAMMLVYNLPSVDALYRRYGGVSGSAFIVAGVGMTYLKSSDVTLAPIRTGIGARLGINVGYLKLTQQPTWNPFEGHHHHHH | soluble
